For one sequence, binding signal (% current response) results are on record in article PMC8002523.

The test system of data set [1] is hemoglobin (Hb). Put plainly: electrochemical displacement from graphene oxide (SWV). To be noted: Binding buffer, pH and temperature not given in the material; aptamer stock 2.0 uM in sterile deionized water; ferricyanide redox probe; fluorescence ex 480 / ….
For data set [2], the system named is immunoglobulin G (IgG). The data set is described as above. The note with it: Binding buffer, pH and temperature not given in the material; aptamer stock 2.0 uM in sterile deionized water; ferricyanide redox probe; fluorescence ex 480 / ….

For “TGCGGTTCGTGCGGTTGTAGTAC [Modified G8-FAM]”, the binding signal (% current response) in data set [1] came to 11.7; in data set [2], 29.5.
